Results published in publication PMC4021362.

Tested on: Hydra Myc2 p15;Hydra Max p22 (Hydra magnipapillata?;Hydra magnipapillata?)
Experiment: EMSA
Details: equimolar mixture, heterodimer; EMSA with 0.3 ng (25,000 cpm) 32P-labeled 18-mer dsDNA; binding buffer, salt, pH and temperature not given in the material

Substance: E-box USF 18-mer
- Kd: 17.4 nM
